Experimental data reported in patent US20060246519.

Experiments:
[1] = SDS-PAGE/Western blot of non-boiled culture supernatant, 20 uM biotin in medium; self-association of subunits
[2] = SDS-PAGE/Western blot of non-boiled culture supernatant; self-association of subunits

B1: streptavidin mutein M4 (T76R, V125R, V55T, L109T), secreted by B. subtilis (protein)
chain: DPSKDSKAQVSAAEAGITGTWYNQLGSTFIVTAGADGALTGTYESAVGNAESRYTLTGRYDSAPATDGSGTALGWRVAWKNNYRNAHSATTWSGQYVGGAEARINTQWTLTSGTTEANAWKSTLRGHDTFTKVKPSAASIDAAKKAGVNNGNPLDAVQQ
- % monomer, with additional biotin [1]: 100%
- % monomer, no additional biotin [2]: 100%
